Results: patent US20080267980A1 (MUSC FOUNDATION FOR RESEARCH DEVELOPMENT, published 2008)
Values belong to the binder of their own block, whether it stands above or below them.

Experiments:
Human C3dg-biotin [1] = molecular target: T1, Human C3dg-biotin (human, UniProt P01024 955-1303, biotin (site not stated) in the SPR experiments); experiment: SPR, C3dg-biotin captured on streptavidin chip
T1 construct: domain: C3dg; In the ELISA it is purified C3dg coated on wells; also called C3dg ligand; CR2 ligand C3dg
Description: (§1) Kinetic analysis of the interaction of the CR2 fusion proteins with C3dg-biotin was performed using surface plasmon resonance (SPR) measurements made on a BIAcore 3000 instrument. Human C3dg-biotin, prepared as described (36), was bound to the surface of BIAcore streptavidin (SA) sensor chips by injecting C3dg-biotin at 50 μg/ml over the surface of one flow cell of the chip at 2 μl/minute for 20 minutes. The flow buffer was 0.5×PBS+0.05% Tween 20. The SPR signal from captured C3dg generated BIAcore response units ranging from 250-500. Control streptavidin-coated flow cells were run in the absence of protein. Binding was evaluated over a range of CR2 fusion protein concentrations (15.6-500 nM) in 0.5×PBS, 0.05% Tween 20 at 25° C. at a flow rate of 25 μl/minute. CR2 fusion protein samples were injected in 50 μl aliquots using the kinject command. Association of the fusion proteins with the ligand was monitored for 120 seconds, after which the complex was allowed to dissociate in the presence of buffer only for an additional 120 seconds. […] Binding data were fitted to a 1:1 Langmuir binding model using BIAevaluation Version 3.1 software (BIAcore) and evaluated for best fit by low residual and χ² values. […]
(§2) A comparison of the affinity of the different recombinant fusion proteins for the CR2 ligand C3dg was determined by surface plasmon resonance measurements. […]

Human C3dg-biotin [2] = molecular target: T1, Human C3dg-biotin; experiment: SPR (referred to)
Description: as §1, §2

Human C3dg-biotin [3] = molecular target: T1, Human C3dg-biotin; experiment: ELISA, wells coated with purified C3dg, anti-complement inhibitor antibodies
Description: ELISA experiments were conducted as previously described. In ELISA experiments, CR2-containing constructs were added to wells coated with purified C3dg. Binding was detected by means of anti-complement inhibitor antibodies and enzyme-conjugated secondary antibodies. All CR2 containing constructs, but not sCD59 and sDAF bound to C3d.

Human C3dg-biotin [4] = molecular target: T1, Human C3dg-biotin; experiment: SPR, biotinylated C3dg on streptavidin BIAcore chip
Description: as §1, §2

T1 sequence (P01024 955-1303 limits assumed): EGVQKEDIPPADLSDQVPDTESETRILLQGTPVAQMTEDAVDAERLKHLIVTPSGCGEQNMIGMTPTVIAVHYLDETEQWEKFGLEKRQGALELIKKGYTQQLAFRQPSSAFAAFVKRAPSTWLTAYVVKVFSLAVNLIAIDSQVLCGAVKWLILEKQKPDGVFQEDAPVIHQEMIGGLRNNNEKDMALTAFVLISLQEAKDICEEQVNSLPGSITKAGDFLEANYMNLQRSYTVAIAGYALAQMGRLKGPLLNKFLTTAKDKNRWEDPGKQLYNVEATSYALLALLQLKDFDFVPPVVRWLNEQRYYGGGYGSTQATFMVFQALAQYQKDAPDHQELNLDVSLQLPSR

B3: DAF-CR2 (other)
chain: DCGLPPDVPNAQPALEGRTSFPEDTVITYKCEESFVKIPGEKDSVICLKGSQWSDIEEFCNRSCEVPTRLNSASLKQPYITQNYFPVGTVVEYECRPGYRREPSLSPKLTCLQNLKWSTAVEFCKKKSCPNPGEIRNGQIDVPGGILFGATISFSCNTGYKLFGSTSSFCLISGSSVQWSDPLPECREIYCPAPPQIDNGIIQGERDHYGYRQSVTYACNKGFTMIGEHSIYCTVNNDEGEWSGPPPECRSSGGGGSGGGGSGGGGSISCGSPPPILNGRISYYSTPIAVGTVIRYSCSGTFRLIGEKSLLCITKDKVDGTWDKPAPKCEYFNKYSSCPEPIVPGGYKIRGSTPYRHGDSVTFACKTNFSMNGNKSVWCQANNMWGPTRLPTCVSVFPLECPALPMIHNGHHTSENVGSIAPGLSVTYSCESGYLLVGEKIINCLSSGKWSAVPPTCEEARCKSLGRFPNGKVKEPPILRVGVTANFFCDEGYRLQGPPSSRCVIAGQGVAWTKMPVC
notes: also called human DAF-CR2; fusion protein with CR2 at the C-terminus
binding result (Human C3dg-biotin [3]): binds

B4: soluble CD59 (other, human, UniProt P13987 26-102, looked up)
chain: LQCYNCPNPTADCKTAVNCSSDFDACLITKAGLQVYNKCWKFEHCNFNDVTTRLRENELTYYCCKKDLCNFNEQLEN
notes: also called sCD59; untargeted sCD59
binding result (Human C3dg-biotin [4]): no binding

Further lines, results first:

binding result (Human C3dg-biotin [1]): no binding
B1: soluble DAF (other, human, UniProt P08174 35-283, looked up)
chain: DCGLPPDVPNAQPALEGRTSFPEDTVITYKCEESFVKIPGEKDSVICLKGSQWSDIEEFCNRSCEVPTRLNSASLKQPYITQNYFPVGTVVEYECRPGYRREPSLSPKLTCLQNLKWSTAVEFCKKKSCPNPGEIRNGQIDVPGGILFGATISFSCNTGYKLFGSTSSFCLISGSSVQWSDPLPECREIYCPAPPQIDNGIIQGERDHYGYRQSVTYACNKGFTMIGEHSIYCTVNNDEGEWSGPPPEC
notes: range 1-249; also called sDAF; untargeted sDAF

binding result (Human C3dg-biotin [2]): binds
B2: CR2-CD59 (other)
chain: ISCGSPPPILNGRISYYSTPIAVGTVIRYSCSGTFRLIGEKSLLCITKDKVDGTWDKPAPKCEYFNKYSSCPEPIVPGGYKIRGSTPYRHGDSVTFACKTNFSMNGNKSVWCQANNMWGPTRLPTCVSVFPLECPALPMIHNGHHTSENVGSIAPGLSVTYSCESGYLLVGEKIINCLSSGKWSAVPPTCEEARCKSLGRFPNGKVKEPPILRVGVTANFFCDEGYRLQGPPSSRCVIAGQGVAWTKMPVCSGGGGSLQCYNCPNPTADCKTAVNCSSDFDACLITKAGLQVYNKCWKFEHCNFNDVTTRLRENELTYYCCKKDLCNFNEQLEN
notes: also called CR2-human CD59; fusion protein with CR2 at the N-terminus
